The values below come from patent CN116535505A.

For assay [1], the target named is 红细胞胞膜抗原 (Erythrocyte membrane antigen) on human fresh red blood cells (human). Description: ELISA on formaldehyde-fixed human red blood cells; antibody at 0 ng/ml (blank). For orientation: ELISA stands for enzyme-linked immunosorbent assay.
The target is the same in assay [2]. The experiment in a line: ELISA on formaldehyde-fixed human red blood cells; antibody at 12.5 ng/ml.
Assay [3] has the same target. Description: ELISA on formaldehyde-fixed human red blood cells; antibody at 25 ng/ml.
For assay [4] the target is unchanged. Description: ELISA on formaldehyde-fixed human red blood cells; antibody at 3.125 ng/ml.
Assay [5] shares this target. Description: ELISA on formaldehyde-fixed human red blood cells; antibody at 6.25 ng/ml.
Assay [6] shares this target. Description: ELISA on formaldehyde-fixed human red blood cells; antibody at 50 ng/ml.
Assay [7] shares this target. Description: ELISA on red blood cells; Anti-EM-8F9mut1 stored 21 days at -80 C; antibody at 1.5625 ng/ml.
Assay [8] has the same target. Description: ELISA on red blood cells; Anti-EM-8F9mut1 stored 21 days at 4 C; antibody at 0 ng/ml (blank).
Assay [9] has the same target. Description: ELISA on red blood cells; Anti-EM-8F9mut1 stored 21 days at 4 C; antibody at 12.5 ng/ml.
Assay [10] shares this target. The experiment in a line: ELISA on red blood cells; Anti-EM-8F9mut1 stored 21 days at -80 C; antibody at 12.5 ng/ml.
The target is the same in assay [11]. The experiment in a line: ELISA on red blood cells; Anti-EM-8F9mut1 stored 21 days at 37 C; antibody at 1.5625 ng/ml.
Assay [12] has the same target. The experiment in a line: ELISA on red blood cells; Anti-EM-8F9mut1 stored 21 days at -80 C; antibody at 0 ng/ml (blank).
Assay [13] shares this target. The experiment in a line: ELISA on red blood cells; Anti-EM-8F9mut1 stored 21 days at 37 C; antibody at 12.5 ng/ml.
For assay [14] the target is unchanged. The experiment in a line: ELISA on red blood cells; Anti-EM-8F9mut1 stored 21 days at 37 C; antibody at 0 ng/ml (blank).
For assay [15] the target is unchanged. Description: ELISA on red blood cells; Anti-EM-8F9mut1 stored 21 days at 4 C; antibody at 1.5625 ng/ml.

In the case of 对照抗体 (antibody), the OD450 (ref 630 nm) in assay [1] was found to be 0.041 OD; in assay [2], 0.696 OD; in assay [3], 1.3 OD; in assay [4] it was 0.196 OD; in assay [5], 0.408 OD; in assay [6], 1.89 OD.

B1: Anti-EM-8F9mut1单克隆抗体 (antibody, mouse IgG2a, kappa, V domains shown)
VH: QVPLQQPGAALVKPGASVKLSCQASDYTFTNYNMHWVKQTPGQGLEWIGTIYAGDGDPSYNQKFKGQATLTADKSSSTAYMQLLSLTSEDSAVYYCARGGTRAMDYWGHGTSVTVSS
VL: DVLLTQIPLSLPVSLGDQASLSCRSSQTLVHSDGNTYLAWYLQKPGQSPKLLIYKVSRRFSGVPDRFSGSGSGTDFTLKISRVEAEDLGVYYCFQGSHVPFTFGSGTKLEVKR
Turning to B1, the OD450 (ref 630 nm) came to 0.647 OD in assay [7]; 0.047 OD in assay [8]; 0.063 OD in assay [1]; 2.12 OD in assay [9]; 2.33 OD in assay [2]; 2.15 OD in assay [10]. Also, the OD450 (ref 630 nm) in assay [11] turned out to be 0.666 OD; in assay [12] it was 0.051 OD; in assay [3], 2.42 OD; in assay [13], 2.13 OD; in assay [14] it was 0.057 OD; in assay [4], 1.28 OD. The OD450 (ref 630 nm) was determined as 2 OD in assay [5], 2.36 OD in assay [6] and 0.691 OD in assay [15].
